From patent publication US20190142971A1, “FORMULATION AND DELIVERY OF MODIFIED NUCLEOSIDE, NUCLEOTIDE, AND NUCLEIC ACID COMPOSITIONS” (ModernaTX, Inc., priority 2013, published 2019)

What was measured:
Assay type in all cases: in vivo
[1] = system: non-human primates (cynomolgus monkey); experiment: Example 22: NHP hematology: neutrophils, reticulocytes, HGB, HCT, RBC (Tables 40-44); conditions: for Female NHP HGB / Female NHP Neutrophils / Male NHP HGB / Male NHP Neutrophils: 0.5 mg/kg IV
Description: (§1) LNP formulations, shown in Table 33 (above), were administered to non-human primates (NHP) (cynomolgus monkey) (n=2) as intravenous injection (IV). The NHP were administered a single modified mRNA IV dose of 0.5 mg/kg, 0.05 mg/kg or 0.005 mg/kg of G-CSF or EPO in a dose volume of 0.5 mL/kg. The NHPs were bled before dosing with the modified mRNA LNP formulations to determine protein expression in the serum and a baseline complete blood count. After administration with the G-CSF modified mRNA formulation the NHP were bled at 8, 24, 48 and 72 hours to determined protein expression. After administration with the EPO modified mRNA formulation the NHP were bled at 8, 24, 48, 72 hours and 7 days to determined protein expression.
Samples collected from the NHPs after they were administered with G-CSF or EPO modified mRNA formulations were analyzed by ELISA to determine protein expression. Neutrophil and reticulocyte count was also determined pre-dose, 24 hours, 3 days, 7 days, 14 days and 18 days after administration of the modified G-CSF or EPO formulation.

Sprague-Dawley rats = experiment: Example 35: duration after IM EPO mRNA in rats, serum EPO (Table 61); conditions: rats IM 100 μg;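 further: serum concentration in pg/mL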
Description: The rats were bled 2, 6, 12, 24, 48 and 72 hours after the intramuscular injection to determine the concentration of human EPO in serum at a given time.

[2] = system: non-human primates (cynomolgus monkey); experiment: Example 22: NHP cytokine interferon-alpha (Table 47)
Description: as §1

[3] = 0.05 mg/kg, Pre-dose, Female NHP
[4] = 0.5 mg/kg, 14/18 days, Female NHP
[5] = 0.5 mg/kg, 14/18 days, Male NHP
[6] = 0.5 mg/kg, 24 hours, Female NHP
[7] = 0.5 mg/kg, Pre-dose, Female NHP

B1: EPO: modified mRNA encoding human erythropoietin, SEQ ID NO: 7, Cap1, fully modified with 5-methylcytosine and pseudouridine; LNP NPA-060-1 in Examples 17-22 (nucleic acid)
chain: GGGAAAUAAGAGAGAAAAGAAGAGUAAGAAGAAAUAUAAGAGCCACCAUGGGAGUGCACGAGUGUCCCGCGUGGUUGUGGUUGCUGCUGUCGCUCUUGAGCCUCCCACUGGGACUGCCUGUGCUGGGGGCACCACCCAGAUUGAUCUGCGACUCACGGGUACUUGAGAGGUACCUUCUUGAAGCCAAAGAAGCCGAAAACAUCACAACCGGAUGCGCCGAGCACUGCUCCCUCAAUGAGAACAUUACUGUACCGGAUACAAAGGUCAAUUUCUAUGCAUGGAAGAGAAUGGAAGUAGGACAGCAGGCCGUCGAAGUGUGGCAGGGGCUCGCGCUUUUGUCGGAGGCGGUGUUGCGGGGUCAGGCCCUCCUCGUCAACUCAUCACAGCCGUGGGAGCCCCUCCAACUUCAUGUCGAUAAAGCGGUGUCGGGGCUCCGCAGCUUGACGACGUUGCUUCGGGCUCUGGGCGCACAAAAGGAGGCUAUUUCGCCGCCUGACGCGGCCUCCGCGGCACCCCUCCGAACGAUCACCGCGGACACGUUUAGGAAGCUUUUUAGAGUGUACAGCAAUUUCCUCCGCGGAAAGCUGAAAUUGUAUACUGGUGAAGCGUGUAGGACAGGGGAUCGCUGAUAAGCUGCCUUCUGCGGGGCUUGCCUUCUGGCCAUGCCCUUCUUCUCUCCCUUGCACCUGUACCUCUUGGUCUUUGAAUAAAGCCUGAGUAGGAAG
modifications: Cap1, 5-methylcytosine, pseudouridine
For B1, the HCT [1, 3] was 0.43 L/L, the RBC [1, 3] was 5.84 10^12/L and the HCT ([1]; 0.05 mg/kg, Pre-dose, Male NHP) was 0.45 L/L. For the same molecule, the RBC ([1]; 0.05 mg/kg, Pre-dose, Male NHP) was 5.57 10^12/L, the “Female NHP HGB” value ([1]; 14/18 days) was 133 g/L and the “Female NHP Neutrophils” value ([1]; 14/18 days) was 2.36 10^9/L. The “Male NHP HGB” value ([1]; 14/18 days) was 146 g/L, the “Male NHP Neutrophils” value ([1]; 14/18 days) was 7.16 10^9/L and the “Female NHP HGB” value ([1]; 24 hours) was 108 g/L. The “Female NHP Neutrophils” value ([1]; 24 hours) was 11.85 10^9/L, the “Male NHP HGB” value ([1]; 24 hours) was 127 g/L and the “Male NHP Neutrophils” value ([1]; 24 hours) was 7.5 10^9/L. The “Female NHP HGB” value ([1]; 3 days) was 120 g/L, the “Female NHP Neutrophils” value ([1]; 3 days) was 5.22 10^9/L and the “Male NHP HGB” value ([1]; 3 days) was 126 g/L. For the same molecule, the “Male NHP Neutrophils” value ([1]; 3 days) was 11.07 10^9/L, the “Female NHP HGB” value ([1]; 7 days) was 134 g/L and the “Female NHP Neutrophils” value ([1]; 7 days) was 2.85 10^9/L. The “Male NHP HGB” value ([1]; 7 days) was 140 g/L, the “Male NHP Neutrophils” value ([1]; 7 days) was 11.8 10^9/L and the “Female NHP HGB” value ([1]; Pre-dose) was 123 g/L. The “Female NHP Neutrophils” value ([1]; Pre-dose) was 1.82 10^9/L, the “Male NHP HGB” value ([1]; Pre-dose) was 134 g/L and the “Male NHP Neutrophils” value ([1]; Pre-dose) was 9.72 10^9/L. For the same molecule, the HCT [1, 4] was 0.46 L/L, the RBC [1, 4] was 5.72 10^12/L and the HCT [1, 5] was 0.48 L/L. For the same molecule, the RBC [1, 5] was 5.83 10^12/L, the HCT [1, 6] was 0.36 L/L and the RBC [1, 6] was 4.69 10^12/L. The HCT ([1]; 0.5 mg/kg, 24 hours, Male NHP) was 0.4 L/L, the RBC ([1]; 0.5 mg/kg, 24 hours, Male NHP) was 5.12 10^12/L and the HCT ([1]; 0.5 mg/kg, 3 days, Female NHP) was 0.39 L/L. The RBC ([1]; 0.5 mg/kg, 3 days, Female NHP) was 5.15 10^12/L, the HCT ([1]; 0.5 mg/kg, 3 days, Male NHP) was 0.41 L/L and the RBC ([1]; 0.5 mg/kg, 3 days, Male NHP) was 5.13 10^12/L. The HCT ([1]; 0.5 mg/kg, 7 days, Female NHP) was 0.45 L/L, the RBC ([1]; 0.5 mg/kg, 7 days, Female NHP) was 5.68 10^12/L and the HCT ([1]; 0.5 mg/kg, 7 days, Male NHP) was 0.45 L/L. The RBC ([1]; 0.5 mg/kg, 7 days, Male NHP) was 5.55 10^12/L, the HCT [1, 7] was 0.4 L/L and the RBC [1, 7] was 5.26 10^12/L. The HCT ([1]; 0.5 mg/kg, Pre-dose, Male NHP) was 0.44 L/L, the RBC ([1]; 0.5 mg/kg, Pre-dose, Male NHP) was 5.43 10^12/L and the “reticulocytes 3 days to 14/18 days after dosing relative to 24 hours after dosing” value ([1]; all dose groups) was “increase in reticulocytes”. The “effect on hemoglobin (HGB), hematocrit (HCT) and red blood cell (RBC) count” value ([1]; cynomolgus monkey, in vivo) was “had an effect”, the “human EPO in serum, Avg.” value (Sprague-Dawley rats; 2 hour) was 59.6 pg/mL and the “human EPO in serum, Geometric-mean” value (Sprague-Dawley rats; 2 hour) was 58.2 pg/mL. The “human EPO in serum, Avg.” value (Sprague-Dawley rats; 6 hour) was 68.6 pg/mL, the “human EPO in serum, Geometric-mean” value (Sprague-Dawley rats; 6 hour) was 55.8 pg/mL and the “human EPO in serum, Avg.” value (Sprague-Dawley rats; 12 hour) was 87.4 pg/mL. The “human EPO in serum, Geometric-mean” value (Sprague-Dawley rats; 12 hour) was 84.5 pg/mL, the “human EPO in serum, Avg.” value (Sprague-Dawley rats; 24 hour) was 108.6 pg/mL and the “human EPO in serum, Geometric-mean” value (Sprague-Dawley rats; 24 hour) was 95.3 pg/mL. For the same molecule, the “human EPO in serum, Avg.” value (Sprague-Dawley rats; 48 hour) was 77.9 pg/mL, the “human EPO in serum, Geometric-mean” value (Sprague-Dawley rats; 48 hour) was 77.0 pg/mL and the “human EPO in serum, Avg.” value (Sprague-Dawley rats; 72 hour) was 80.1 pg/mL. For the same molecule, the “human EPO in serum, Geometric-mean” value (Sprague-Dawley rats; 72 hour) was 75.8 pg/mL, the IFN-alpha ([2]; 0.005 mg/kg, 4 days, Female NHP) was 0 pg/mL and the IFN-alpha ([2]; 0.005 mg/kg, 4 days, Male NHP) was 0 pg/mL. The IFN-alpha ([2]; 0.005 mg/kg, Day 1 + 8 hr, Female NHP) was 0 pg/mL, the IFN-alpha ([2]; 0.005 mg/kg, Day 1 + 8 hr, Male NHP) was 0 pg/mL and the IFN-alpha ([2]; 0.005 mg/kg, Pre-dose, Female NHP) was 0 pg/mL. It also gave an IFN-alpha ([2]; 0.005 mg/kg, Pre-dose, Male NHP) of 0 pg/mL, an IFN-alpha ([2]; 0.05 mg/kg, 4 days, Female NHP) of 0 pg/mL and an IFN-alpha ([2]; 0.05 mg/kg, 4 days, Male NHP) of 0 pg/mL. It also gave an IFN-alpha ([2]; 0.05 mg/kg, Day 1 + 8 hr, Female NHP) of 0 pg/mL, an IFN-alpha ([2]; 0.05 mg/kg, Day 1 + 8 hr, Male NHP) of 0 pg/mL and an IFN-alpha [2, 3] of 0 pg/mL. The IFN-alpha ([2]; 0.05 mg/kg, Pre-dose, Male NHP) was 0 pg/mL, the IFN-alpha ([2]; 0.5 mg/kg, 4 days, Female NHP) was 0 pg/mL and the IFN-alpha ([2]; 0.5 mg/kg, 4 days, Male NHP) was 0 pg/mL. It also gave an IFN-alpha ([2]; 0.5 mg/kg, Day 1 + 8 hr, Female NHP) of 217.5 pg/mL, an IFN-alpha ([2]; 0.5 mg/kg, Day 1 + 8 hr, Male NHP) of 16.79 pg/mL and an IFN-alpha [2, 7] of 0 pg/mL. For the same molecule, the IFN-alpha ([2]; 0.5 mg/kg, Pre-dose, Male NHP) was 0 pg/mL.
